Biological target: mTOR (mammalian target of rapamycin), endogenous protein of human cell lines (human, UniProt P42345 1-2549)
Experiment: co-IP from transfected HEK293T cells, western blot (FIG. 6B, 8D)

binding result: no binding
B1: HA-raptor mut1 (194YDC196-AAA) (other, not shown: small tags and cut ends)
chain: MESEMLQSPLLGLGEEDEADLTDWNLPLAFMKKRHCEKIEGSKSLAQSWRMKDRMKTVSVALVLCLNVGVDPPDVVKTTPCARLECWIDPLSMGPQKALETIGANLQKQYENWQPRARYKQSLDPTVDEVKKLCTSLRRNAKEERVLFHYNGHGVPRPTVNGEVWVFNKNYTQYIPLSIYDLQTWMGSPSIFVAAASNAGLIVKSFKQFALQREQELEVAAINPNHPLAQMPLPPSMKNCIQLAACEATELLPMIPDLPADLFTSCLTTPIKIALRWFCMQKCVSLVPGVTLDLIEKIPGRLNDRRTPLGELNWIFTAITDTIAWNVLPRDLFQKLFRQDLLVASLFRNFLLAERIMRSYNCTPVSSPRLPPTYMHAMWQAWDLAVDICLSQLPTIIEEGTAFRHSPFFAEQLTAFQVWLTMGVENRNPPEQLPIVLQVLLSQVHRLRALDLLGRFLDLGPWAVSLALSVGIFPYVLKLLQSSARELRPLLVFIWAKILAVDSSCQADLVKDNGHKYFLSVLADPYMPAEHRTMTAFILAVIVNSYHTGQEACLQGNLIAICLEQLNDPHPLLRQWVAICLGRIWQNFDSARWCGVRDSAHEKLYSLLSDPIPEVRCAAVFALGTFVGNSAERTDHSTTIDHNVAMMLAQLVSDGSPMVRKELVVALSHLVVQYESNFCTVALQFIEEEKNYALPSPATTEGGSLTPVRDSPCTPRLRSVSSYGNIRAVATARSLNKSLQNLSLTEESGGAVAFSPGNLSTSSSASSTLGSPENEEHILSFETIDKMRRASSYSSLNSLIGVSFNSVYTQIWRVLLHLAADPYPEVSDVAMKVLNSIAYKATVNARPQRVLDTSSLTQSAPASPTNKGVHIHQAGGSPPASSTSSSSLTNDVAKQPVSRDLPSGRPGTTGPAGAQYTPHSHQFPRTRKMFDKGPEQTADDADDAAGHKSFISATVQTGFCDWSARYFAQPVMKIPEEHDLESQIRKEREWRFLRNSRVRRQAQQVIQKGITRLDDQIFLNRNPGVPSVVKFHPFTPCIAVADKDSICFWDWEKGEKLDYFHNGNPRYTRVTAMEYLNGQDCSLLLTATDDGAIRVWKNFADLEKNPEMVTAWQGLSDMLPTTRGAGMVVDWEQETGLLMSSGDVRIVRIWDTDREMKVQDIPTGADSCVTSLSCDSHRSLIVAGLGDGSIRVYDRRMALSECRVMTYREHTAWVVKASLQKRPDGHIVSVSVNGDVRIFDPRMPESVNVLQIVKGLTALDIHPQADLIACGSVNQFTAIYNSSGELINNIKYYDGFMGQRVGAISCLAFHPHWPHLAVGSNDYYISVYSVEKRVR
notes: also called mutant 1
